Laboratory results: patent publication US20100150879A1 (published 2010)
Blank lines part the entries; values can stand above or below the binder they belong to. No end group written: not given here.

Tests used:
β-catenin, endogenous [1] = molecular target: T1, β-catenin, endogenous (human, UniProt P35222 2-781); assay: immunoprecipitation and western blot, HEK293 cells expressing HA-LPP3
T1 construct: Endogenous protein from cell extracts; also called beta-catenin
T1 sequence (looked up): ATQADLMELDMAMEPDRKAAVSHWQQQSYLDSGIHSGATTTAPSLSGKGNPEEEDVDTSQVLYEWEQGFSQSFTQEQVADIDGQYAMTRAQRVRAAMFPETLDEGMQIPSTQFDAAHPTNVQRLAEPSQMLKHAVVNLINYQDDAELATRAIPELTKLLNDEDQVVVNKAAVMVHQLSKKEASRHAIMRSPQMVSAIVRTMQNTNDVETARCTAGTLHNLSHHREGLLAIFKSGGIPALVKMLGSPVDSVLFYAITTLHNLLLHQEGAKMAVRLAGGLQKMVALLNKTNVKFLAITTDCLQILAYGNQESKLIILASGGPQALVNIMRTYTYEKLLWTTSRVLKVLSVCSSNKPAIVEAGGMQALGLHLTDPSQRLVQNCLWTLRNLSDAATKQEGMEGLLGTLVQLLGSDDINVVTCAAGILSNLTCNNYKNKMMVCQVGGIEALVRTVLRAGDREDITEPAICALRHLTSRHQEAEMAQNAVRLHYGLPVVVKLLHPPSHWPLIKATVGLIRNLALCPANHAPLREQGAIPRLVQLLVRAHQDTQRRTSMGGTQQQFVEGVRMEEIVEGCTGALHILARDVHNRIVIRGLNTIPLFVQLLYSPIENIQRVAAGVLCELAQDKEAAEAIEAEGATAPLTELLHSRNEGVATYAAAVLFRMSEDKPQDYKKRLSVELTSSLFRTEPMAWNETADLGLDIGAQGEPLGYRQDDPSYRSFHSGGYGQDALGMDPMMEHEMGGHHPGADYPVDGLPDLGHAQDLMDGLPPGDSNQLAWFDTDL
Procedure: (§1) For immunoprecipitation experiments, cells were rinsed with cold phosphate buffered saline (PBS), pH 7.4 and solubilized with complete cell lysis buffer (50 mM HEPES, pH 7.5; 150 mM NaCl; 1% TRITON X-100; 1 mM calcium chloride; 1 mM magnesium chloride; 1 mM sodium orthovanadate; 25 mM sodium fluoride; 1 mM sodium pyrosphosphate; 1 mM phenylmethylsulfonyl fluoride (PMSF); 10 μg/ml aprotinin; 10 μg/ml leupeptin; 1 μg/ml pepstatin-A) or with modified RIPA buffer (20 mM Tris, pH 7.5; 0.1% SDS; 0.25% sodium deoxycholate; 1% TRITON X-100; 150 mM sodium chloride; 1 mM sodium pyrosphosphate; 25 mM sodium fluoride; 1 mM sodium orthovanadate; 5 mM magnesium chloride; 1 mM calcium chloride; 1 μg/ml pepstatin; 1 mM phenylmethylsulfonyl fluoride; 1 μg/ml leupeptin) at 4° C. for 30 minutes. Cell extracts were centrifuged at ˜21,000×g for 30 minutes at 4° C., pre-adsorbed, and immunoprecipitated using specific antibodies. Immune complexes were washed 4-5 times with lysis buffer or with cold immunoprecipitation wash buffer (50 mM HEPES, pH 7.5; 150 mM NaCl; 0.5% NP-40; 1 mM calcium chloride; 1 mM magnesium chloride). SEPHAROSE-bound immune complexes were boiled in 1× Lammeli reducing sample buffer and resolved by SDS-PAGE.

[2] = molecular target: T2, γ-catenin (plakoglobin), endogenous (human, UniProt P14923 1-745); assay: as above
T2 construct: Endogenous protein from cell extracts; also called gamma-catenin
T2 sequence (looked up): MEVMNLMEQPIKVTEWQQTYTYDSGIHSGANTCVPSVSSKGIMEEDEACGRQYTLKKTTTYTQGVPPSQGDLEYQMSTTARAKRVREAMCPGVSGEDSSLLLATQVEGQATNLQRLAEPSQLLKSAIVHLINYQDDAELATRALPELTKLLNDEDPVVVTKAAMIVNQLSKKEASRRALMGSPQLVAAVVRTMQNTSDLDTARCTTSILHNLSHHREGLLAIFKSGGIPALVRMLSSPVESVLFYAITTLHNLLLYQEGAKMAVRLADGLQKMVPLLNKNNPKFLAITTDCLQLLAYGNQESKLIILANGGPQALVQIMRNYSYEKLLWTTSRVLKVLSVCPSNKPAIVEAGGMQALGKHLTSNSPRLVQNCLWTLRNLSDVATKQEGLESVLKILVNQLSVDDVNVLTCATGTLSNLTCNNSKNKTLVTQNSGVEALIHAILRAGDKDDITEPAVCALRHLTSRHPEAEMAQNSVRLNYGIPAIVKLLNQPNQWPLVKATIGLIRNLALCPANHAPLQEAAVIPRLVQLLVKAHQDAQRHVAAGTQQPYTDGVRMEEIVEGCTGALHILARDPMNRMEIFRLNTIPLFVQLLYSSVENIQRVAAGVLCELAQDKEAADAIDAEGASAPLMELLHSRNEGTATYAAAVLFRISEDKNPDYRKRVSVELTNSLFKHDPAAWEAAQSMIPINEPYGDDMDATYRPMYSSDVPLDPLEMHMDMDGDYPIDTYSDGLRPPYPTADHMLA
Procedure: as §1

[3] = molecular target: T3, p120-catenin (p120ctn), endogenous (human, UniProt O60716 1-968, limits assumed); assay: GST pull-down
T3 construct: Endogenous protein from cell extracts of human cells (hdMVEC, HEK293)
T3 sequence (looked up): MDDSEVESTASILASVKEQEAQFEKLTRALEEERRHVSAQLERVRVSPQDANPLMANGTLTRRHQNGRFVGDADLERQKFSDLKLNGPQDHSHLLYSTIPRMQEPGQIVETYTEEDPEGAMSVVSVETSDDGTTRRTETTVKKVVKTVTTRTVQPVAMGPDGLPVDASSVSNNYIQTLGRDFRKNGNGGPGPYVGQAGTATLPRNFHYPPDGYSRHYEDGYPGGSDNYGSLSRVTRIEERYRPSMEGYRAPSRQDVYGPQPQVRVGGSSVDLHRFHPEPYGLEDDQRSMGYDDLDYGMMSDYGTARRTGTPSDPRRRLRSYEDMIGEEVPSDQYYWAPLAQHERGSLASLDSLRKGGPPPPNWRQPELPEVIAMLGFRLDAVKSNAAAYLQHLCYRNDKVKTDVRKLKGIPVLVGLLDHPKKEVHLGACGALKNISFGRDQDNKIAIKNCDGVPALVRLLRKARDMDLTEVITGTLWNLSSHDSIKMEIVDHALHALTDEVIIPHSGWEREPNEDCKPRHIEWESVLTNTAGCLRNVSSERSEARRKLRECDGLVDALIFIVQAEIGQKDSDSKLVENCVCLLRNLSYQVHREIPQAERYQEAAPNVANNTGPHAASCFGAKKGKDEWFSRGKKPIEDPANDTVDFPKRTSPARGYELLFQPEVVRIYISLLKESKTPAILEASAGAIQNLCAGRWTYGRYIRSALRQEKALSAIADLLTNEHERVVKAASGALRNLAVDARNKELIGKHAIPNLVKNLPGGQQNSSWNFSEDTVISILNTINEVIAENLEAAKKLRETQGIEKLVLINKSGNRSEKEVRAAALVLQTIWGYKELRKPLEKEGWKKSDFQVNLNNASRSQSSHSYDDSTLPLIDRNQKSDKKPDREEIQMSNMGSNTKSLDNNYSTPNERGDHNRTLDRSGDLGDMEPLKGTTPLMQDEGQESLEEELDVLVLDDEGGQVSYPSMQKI
Procedure: Pull-down assays were also carried out with GST-LPP3 fusion proteins. […] In these experiments, each of the membranes was probed for the presence of the GST-fusion protein.

β-catenin, endogenous [4] = molecular target: T1, β-catenin, endogenous; assay: co-immunoprecipitation from sub-confluent ECs transfected with FLAG-tagged PTEN
Procedure: Cell extracts were centrifuged at ˜21,000×g for 30 minutes at 4° C., pre-adsorbed, and immunoprecipitated using specific antibodies. Immune complexes were washed 4-5 times with lysis buffer or with cold immunoprecipitation wash buffer (50 mM HEPES, pH 7.5; 150 mM NaCl; 0.5% NP-40; 1 mM calcium chloride; 1 mM magnesium chloride). SEPHAROSE-bound immune complexes were boiled in 1× Lammeli reducing sample buffer and resolved by SDS-PAGE.
It was initially determined whether PTEN binds to β-catenin in sub-confluent ECs.

β-catenin, endogenous [5] = molecular target: T1, β-catenin, endogenous; assay: interaction assay in extracts of ECs transfected with LPP3 constructs (method not spelled out)
[6] = molecular target: T4, VE-cadherin, endogenous in hdMVEC (human, UniProt P33151 48-784); assay: co-immunoprecipitation from confluent EC extracts
T4 construct: Endogenous protein from confluent EC extracts
T4 sequence (looked up): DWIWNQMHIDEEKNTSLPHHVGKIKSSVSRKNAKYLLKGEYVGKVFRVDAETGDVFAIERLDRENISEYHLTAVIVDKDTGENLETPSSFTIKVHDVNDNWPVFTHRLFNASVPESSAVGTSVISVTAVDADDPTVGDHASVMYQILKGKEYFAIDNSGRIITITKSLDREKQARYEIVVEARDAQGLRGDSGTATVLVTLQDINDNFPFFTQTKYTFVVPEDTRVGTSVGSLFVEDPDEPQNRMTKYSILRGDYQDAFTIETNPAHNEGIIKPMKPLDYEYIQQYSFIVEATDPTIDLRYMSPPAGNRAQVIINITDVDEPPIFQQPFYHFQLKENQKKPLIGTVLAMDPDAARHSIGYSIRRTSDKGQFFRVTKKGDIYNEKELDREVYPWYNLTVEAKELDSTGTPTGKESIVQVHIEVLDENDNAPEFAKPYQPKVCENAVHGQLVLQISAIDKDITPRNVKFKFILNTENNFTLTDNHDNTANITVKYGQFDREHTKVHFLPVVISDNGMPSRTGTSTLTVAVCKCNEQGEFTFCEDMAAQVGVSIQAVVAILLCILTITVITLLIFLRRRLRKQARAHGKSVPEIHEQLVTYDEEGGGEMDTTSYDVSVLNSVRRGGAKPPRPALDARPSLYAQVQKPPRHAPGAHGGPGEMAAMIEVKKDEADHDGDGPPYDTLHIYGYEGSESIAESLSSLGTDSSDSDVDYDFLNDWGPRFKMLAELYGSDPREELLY
Procedure: Biochemical Experiments. For immunoprecipitation experiments, cells were rinsed with cold phosphate buffered saline (PBS), pH 7.4 and solubilized with complete cell lysis buffer (50 mM HEPES, pH 7.5; 150 mM NaCl; 1% TRITON X-100; 1 mM calcium chloride; 1 mM magnesium chloride; 1 mM sodium orthovanadate; 25 mM sodium fluoride; 1 mM sodium pyrosphosphate; 1 mM phenylmethylsulfonyl fluoride (PMSF); 10 μg/ml aprotinin; 10 μg/ml leupeptin; 1 μg/ml pepstatin-A) or with modified RIPA buffer (20 mM Tris, pH 7.5; 0.1% SDS; 0.25% sodium deoxycholate; 1% TRITON X-100; 150 mM sodium chloride; 1 mM sodium pyrosphosphate; 25 mM sodium fluoride; 1 mM sodium orthovanadate; 5 mM magnesium chloride; 1 mM calcium chloride; 1 μg/ml pepstatin; 1 mM phenylmethylsulfonyl fluoride; 1 μg/ml leupeptin) at 4° C. for 30 minutes. Cell extracts were centrifuged at ˜21,000×g for 30 minutes at 4° C., pre-adsorbed, and immunoprecipitated using specific antibodies. Immune complexes were washed 4-5 times with lysis buffer or with cold immunoprecipitation wash buffer (50 mM HEPES, pH 7.5; 150 mM NaCl; 0.5% NP-40; 1 mM calcium chloride; 1 mM magnesium chloride). SEPHAROSE-bound immune complexes were boiled in 1× Lammeli reducing sample buffer and resolved by SDS-PAGE. […]

[7] = molecular target: T4, VE-cadherin, endogenous in hdMVEC; assay: far western, GST-LPP3-C-cyto as bait on blotted immunoprecipitates from hdMVEC
β-catenin, endogenous [8] = molecular target: T1, β-catenin, endogenous; assay: as above
[9] = molecular target: T2, γ-catenin (plakoglobin), endogenous; assay: as above
[10] = molecular target: T5, β1-integrin, endogenous in hdMVEC (human, UniProt P05556 21-798); assay: as above
T5 construct: Immunoprecipitated from hdMVEC extracts and blotted for far western analysis; also called beta1-integrin
T5 sequence (P05556 21-798): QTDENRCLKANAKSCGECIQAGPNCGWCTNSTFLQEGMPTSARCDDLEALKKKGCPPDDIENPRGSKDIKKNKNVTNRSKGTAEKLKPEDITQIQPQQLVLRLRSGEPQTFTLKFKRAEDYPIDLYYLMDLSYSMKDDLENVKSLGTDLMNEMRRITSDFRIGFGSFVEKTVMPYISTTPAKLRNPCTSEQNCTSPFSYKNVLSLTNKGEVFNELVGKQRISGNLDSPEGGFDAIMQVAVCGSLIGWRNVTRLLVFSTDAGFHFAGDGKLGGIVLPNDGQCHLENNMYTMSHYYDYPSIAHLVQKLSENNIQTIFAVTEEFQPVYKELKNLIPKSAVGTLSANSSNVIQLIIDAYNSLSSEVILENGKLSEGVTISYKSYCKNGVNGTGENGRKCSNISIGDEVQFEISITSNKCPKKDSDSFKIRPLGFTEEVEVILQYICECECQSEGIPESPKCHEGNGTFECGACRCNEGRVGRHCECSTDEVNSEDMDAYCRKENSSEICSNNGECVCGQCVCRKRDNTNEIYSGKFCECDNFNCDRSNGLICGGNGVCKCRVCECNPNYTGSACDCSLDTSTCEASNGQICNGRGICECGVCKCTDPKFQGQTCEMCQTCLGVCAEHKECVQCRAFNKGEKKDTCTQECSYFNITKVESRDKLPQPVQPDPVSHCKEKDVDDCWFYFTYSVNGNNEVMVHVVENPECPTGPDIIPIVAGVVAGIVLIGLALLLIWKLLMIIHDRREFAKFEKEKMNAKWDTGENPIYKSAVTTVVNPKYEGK

B1: HA-tagged human wild-type LPP3 (pLNCX2-HA-WT-hLPP3) (enzyme)
chain: YPYDVPDYAYPYDVPDYAYPYDVPDYAMQNYKYDKAIVPESKNGGSPALNNNPRRSGSKRVLLICLDLFCLFMAGLPFLIIETSTIKPYHRGFYCNDESIKYPLKTGETINDAVLCAVGIVIAILAIITGEFYRIYYLKKSRSTIQNPYVAALYKQVGCFLFGCAISQSFTDIAKVSIGRLRPHFLSVCNPDFSQINCSEGYIQNYRCRGDDSKVQEARKSFFSGHASFSMYTMLYLVLYLQARFTWRGARLLRPLLQFTLIMMAFYTGLSRVSDHKHHPSDVLAGFAQGALVACCIVFFVSDLFKTKTTLSLPAPAIRKEILSPVDIIDRNNHHNMM
notes: whole, on cells; Three copies of the HA tag are fused in-frame at the N-terminus; also called HA-LPP3
binding result (β-catenin, endogenous [1]): no binding
binding result [2]: no binding

B2: GST-N-cyto fusion protein (GST fused to the N-terminal cytoplasmic domain of LPP3) (other)
chain: QNYKYDKAIVPESKNGGSPALNNNPRRSGSK
notes: Expressed in E. coli; not shown: glutathione-S-transferase (GST)
binding result [3]: no binding

B4: Lymphoid Enhancer Binding Factor 1 (LEF-1), endogenous in hdMVEC (other, human, UniProt Q9UJU2 1-399, looked up)
chain: MPQLSGGGGGGGGDPELCATDEMIPFKDEGDPQKEKIFAEISHPEEEGDLADIKSSLVNESEIIPASNGHEVARQAQTSQEPYHDKAREHPDDGKHPDGGLYNKGPSYSSYSGYIMMPNMNNDPYMSNGSLSPPIPRTSNKVPVVQPSHAVHPLTPLITYSDEHFSPGSHPSHIPSDVNSKQGMSRHPPAPDIPTFYPLSPGGVGQITPPLGWQGQPVYPITGGFRQPYPSSLSVDTSMSRFSHHMIPGPPGPHTTGIPHPAIVTPQVKQEHPHTDSDLMHVKPQHEQRKEQEPKRPHIKKPLNAFMLYMKEMRANVVAECTLKESAAINQILGRRWHALSREEQAKYYELARKERQLHMQLYPGWSARDNYGKKKKRKREKLQESASGTGPRMTAAYI
notes: Endogenous protein from EC extracts
binding result (β-catenin, endogenous [5]): binds

The remaining lines, values ahead:

binding result (β-catenin, endogenous [4]): no binding
B3: FLAG-tagged wild-type PTEN (enzyme)
chain: not shown
notes: Gift construct, transfected into sub-confluent ECs; also called WT-PTEN; not shown: FLAG tag

binding result [6]: no binding
B5: Lipid Phosphate Phosphatase-3 (LPP3), endogenous in human dermal microvascular endothelial cells (enzyme, UniProt O14495 1-311, looked up)
chain: MQNYKYDKAIVPESKNGGSPALNNNPRRSGSKRVLLICLDLFCLFMAGLPFLIIETSTIKPYHRGFYCNDESIKYPLKTGETINDAVLCAVGIVIAILAIITGEFYRIYYLKKSRSTIQNPYVAALYKQVGCFLFGCAISQSFTDIAKVSIGRLRPHFLSVCNPDFSQINCSEGYIQNYRCRGDDSKVQEARKSFFSGHASFSMYTMLYLVLYLQARFTWRGARLLRPLLQFTLIMMAFYTGLSRVSDHKHHPSDVLAGFAQGALVACCIVFFVSDLFKTKTTLSLPAPAIRKEILSPVDIIDRNNHHNMM
notes: Endogenous protein immunoprecipitated from hdMVEC lysates; also called phosphatidic acid phosphatase-2b; PAP2b

binding result [7]: no binding (tested: 2.0 µg/ml)
binding result (β-catenin, endogenous [8]): no binding (tested: 2.0 µg/ml)
binding result [9]: no binding (tested: 2.0 µg/ml)
binding result [10]: no binding (tested: 2.0 µg/ml)
B6: GST-LPP3-C-cyto fusion protein (GST fused to the C-terminal cytoplasmic domain of LPP3) (other)
chain: SDLFKTKMTLSLPAPAIRKEILSPVDIIDRNNHHNMM
modifications: also: fused to glutathione-S-transferase (GST), linker not given here
notes: Expressed in E. coli; ran at 32 kDa; also called GST-C-cyto; GST-CC; not shown: glutathione-S-transferase (GST)
